Our source for the Kd values is publication PMC5461540 (2017).

B1: MOB1A wild-type (natural protein)
chain: SFLFSSRSSKTFKPKKNIPEGSHQYELLKHAEATLGSGNLRQAVMLPEGEDLNEWIAVNTVDFFNQINMLYGTITEFCTEASCPVMSAGPRYEYHWADGTNIKKPIKCSAPKYIDYLMTWVQDQLDDETLFPSKIGVPFPKNFMSVAKTILKRLFRVYAHIYHQHFDSVMQLQEEAHLNTSFKHFIFFVQEFNLIDRRELAPLQELIEKLGSKDR

Test [1] concerns the target T1, FITC labeled MST1 pT329 phosphopeptide (human, UniProt Q13043, phosphothreonine at 329; FITC label (position not given)).
T1 sequence (Q13043 whole entry, looked up): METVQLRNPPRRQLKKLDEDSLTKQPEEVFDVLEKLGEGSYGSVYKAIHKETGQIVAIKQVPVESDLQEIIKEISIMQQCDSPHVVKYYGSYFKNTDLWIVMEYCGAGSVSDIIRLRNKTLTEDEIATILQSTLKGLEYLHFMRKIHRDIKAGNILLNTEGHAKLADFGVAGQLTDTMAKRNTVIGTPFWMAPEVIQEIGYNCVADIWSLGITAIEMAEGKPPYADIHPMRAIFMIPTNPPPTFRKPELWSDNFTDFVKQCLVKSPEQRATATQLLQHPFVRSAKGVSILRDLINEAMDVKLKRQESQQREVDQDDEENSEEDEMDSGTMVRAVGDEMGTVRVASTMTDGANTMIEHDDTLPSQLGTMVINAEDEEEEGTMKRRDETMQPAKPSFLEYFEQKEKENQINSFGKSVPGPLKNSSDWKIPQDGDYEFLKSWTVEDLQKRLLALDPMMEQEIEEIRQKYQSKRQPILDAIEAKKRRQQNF
As to the kind of experiment: FP.

Test [2] concerns the target T2, FITC labeled MST1 pT340 phosphopeptide (human, UniProt Q13043, phosphothreonine at 340; FITC label (position not given)).
T2 sequence (Q13043 whole entry, looked up): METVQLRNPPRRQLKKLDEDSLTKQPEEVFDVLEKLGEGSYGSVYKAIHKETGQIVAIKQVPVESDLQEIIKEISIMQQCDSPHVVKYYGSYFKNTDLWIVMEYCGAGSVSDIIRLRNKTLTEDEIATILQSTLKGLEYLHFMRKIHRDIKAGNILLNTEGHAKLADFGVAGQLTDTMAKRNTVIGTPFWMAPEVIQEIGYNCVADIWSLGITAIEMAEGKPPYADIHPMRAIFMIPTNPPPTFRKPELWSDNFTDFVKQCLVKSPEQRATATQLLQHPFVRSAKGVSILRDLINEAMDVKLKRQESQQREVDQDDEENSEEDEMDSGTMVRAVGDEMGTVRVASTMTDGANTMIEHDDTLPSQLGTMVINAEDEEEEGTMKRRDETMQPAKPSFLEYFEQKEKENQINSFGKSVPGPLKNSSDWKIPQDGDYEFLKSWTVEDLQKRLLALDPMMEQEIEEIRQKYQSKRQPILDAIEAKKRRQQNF
Description: FP.

Test [3] concerns the target T3, FITC labeled MST1 pT380 phosphopeptide (human, UniProt Q13043, phosphothreonine at 380; FITC label (position not given)).
T3 sequence (Q13043 whole entry, looked up): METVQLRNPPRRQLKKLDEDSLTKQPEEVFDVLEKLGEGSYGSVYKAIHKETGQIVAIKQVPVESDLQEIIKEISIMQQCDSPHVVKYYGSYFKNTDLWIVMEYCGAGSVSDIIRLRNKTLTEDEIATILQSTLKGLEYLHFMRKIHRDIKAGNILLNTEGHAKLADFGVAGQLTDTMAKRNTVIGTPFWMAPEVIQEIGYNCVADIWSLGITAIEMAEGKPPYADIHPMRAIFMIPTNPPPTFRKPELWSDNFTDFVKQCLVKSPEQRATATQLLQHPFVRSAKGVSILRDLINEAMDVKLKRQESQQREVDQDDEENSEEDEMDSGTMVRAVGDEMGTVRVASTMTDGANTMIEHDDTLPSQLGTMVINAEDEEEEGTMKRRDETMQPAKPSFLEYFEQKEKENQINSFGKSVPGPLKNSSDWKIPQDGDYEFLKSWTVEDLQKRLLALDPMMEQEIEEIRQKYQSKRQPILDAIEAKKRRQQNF
As to the kind of experiment: FP.

The target of test [4] is T3, FITC labeled MST1 pT380 phosphopeptide. Description: FP. The source holds these as a separate data set.
For test [5], the target named is T1, FITC labeled MST1 pT329 phosphopeptide. As to the kind of experiment: FP. The source holds these as a separate data set.
For test [6], the target named is T2, FITC labeled MST1 pT340 phosphopeptide. As to the kind of experiment: FP. The source holds these as a separate data set.
Test [7] has as its target MST1 pT380/pT387 peptide. Description: FP; doubly phosphorylated pT380/pT387.
The target in test [8] is MST1 pT329/pT340 peptide. As to the kind of experiment: FP; doubly phosphorylated pT329/pT340.
Test [9] addresses B1. Description: FP.
Test [10] concerns the target T4, yeast Mob1 (yeast, UniProt P40484 79-314).
T4 chain: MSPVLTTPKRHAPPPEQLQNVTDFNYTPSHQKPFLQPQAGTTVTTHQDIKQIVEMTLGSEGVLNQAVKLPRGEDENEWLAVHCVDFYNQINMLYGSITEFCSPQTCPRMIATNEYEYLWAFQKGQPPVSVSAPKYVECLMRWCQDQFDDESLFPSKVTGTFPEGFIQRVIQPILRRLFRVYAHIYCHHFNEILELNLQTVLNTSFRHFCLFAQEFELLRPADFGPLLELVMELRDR
Description: FP.

Test [11] addresses T5, MOB1B (tags cleaved) (human, UniProt Q7L9L4-2 2-216).
T5 chain: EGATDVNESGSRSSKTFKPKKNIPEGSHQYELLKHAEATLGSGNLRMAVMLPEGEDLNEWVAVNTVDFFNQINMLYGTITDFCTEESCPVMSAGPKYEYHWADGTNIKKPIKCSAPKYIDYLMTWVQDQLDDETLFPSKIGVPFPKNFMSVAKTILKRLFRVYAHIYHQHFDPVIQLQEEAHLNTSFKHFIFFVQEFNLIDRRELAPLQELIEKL
Description: FP.

Test [12] has as its target T6, MOB3C (human, UniProt Q70IA8 2-216).
T6 chain: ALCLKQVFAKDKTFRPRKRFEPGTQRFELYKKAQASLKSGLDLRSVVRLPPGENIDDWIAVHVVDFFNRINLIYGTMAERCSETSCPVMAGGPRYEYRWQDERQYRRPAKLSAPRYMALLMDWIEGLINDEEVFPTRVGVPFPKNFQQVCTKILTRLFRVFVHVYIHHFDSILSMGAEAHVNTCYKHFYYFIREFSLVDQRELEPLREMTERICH
Description: FP.

Test [13] deals with T7, MOB3B (human, UniProt Q86TA1 2-216).
T7 chain: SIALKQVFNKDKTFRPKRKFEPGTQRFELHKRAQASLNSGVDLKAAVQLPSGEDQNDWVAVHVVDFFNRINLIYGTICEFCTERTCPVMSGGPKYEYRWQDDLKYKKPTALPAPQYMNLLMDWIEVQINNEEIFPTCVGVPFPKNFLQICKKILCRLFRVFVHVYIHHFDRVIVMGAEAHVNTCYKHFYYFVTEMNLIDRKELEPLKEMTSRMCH
Description: FP.

The target of test [14] is T8, MOB3A (human, UniProt Q96BX8 2-217).
T8 chain: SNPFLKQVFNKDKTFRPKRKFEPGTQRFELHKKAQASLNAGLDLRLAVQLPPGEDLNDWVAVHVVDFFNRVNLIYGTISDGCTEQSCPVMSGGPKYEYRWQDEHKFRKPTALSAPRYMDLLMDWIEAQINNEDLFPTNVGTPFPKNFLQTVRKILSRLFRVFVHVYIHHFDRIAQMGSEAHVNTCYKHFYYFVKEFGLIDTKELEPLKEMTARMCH
Description: FP.

The target in test [15] is T4, yeast Mob1. Description: FP.
Test [16] addresses B1. Description: FP.

Like-named read-outs stand apart in the source and are kept apart here. Where no end group is shown, it is not given here. [ ]: non-standard residue; d: D form. pS = N[C@@H](COP(=O)(O)O)C(=O)O

As to B1, the Kd in test [1] is 46.5 µM; in test [2], 66.1 µM; in test [3], 185 µM; in test [4], 186 µM; in [5], 47 µM; in test [6], 66 µM. The values for the Kd in test [7] and in [8] were 95 µM and 49 µM, respectively.

B2: FITC labeled phosphorylated MST1 T353 peptide (peptide)
chain: VASTMTDGANTMIEH
modifications: also: phosphothreonine at 353 (place in peptide not given here), FITC label, position not given here
On to B2, for which the Kd in test [9] is 310 nM.

B3: FITC labeled phosphorylated MST1 T367 peptide (peptide)
chain: DDTLPSQLGTMVINA
modifications: also: phosphothreonine at 367 (place in peptide not given here), FITC label, position not given here
As for B3, the Kd in test [9] was determined as 580 nM; in test [10] it was 29.3 µM; in [11], 780 nM; in [12] it was 2300 nM; in [13] it was 2600 nM; in test [14], 2900 nM. The values for the Kd in test [15] and in test [16] were 29 µM and 0.8 µM, respectively.
In the case of YH[pS]VVRYA (also: FITC label, position not given here) [optimized Nud1-like phosphoserine containing peptide (FITC labeled)], the figures for the Kd in test [15] and in [16] were 0.4 µM and 30 µM, respectively.

As a reminder, the Kd is the concentration at which binding is half-saturated. Read a low Kd as tighter binding.
